Data reported in US20190169256A1 (YISSUM RESEARCH DEVELOPMENT COMPANY OF THE HEBREW …, published 2019).
One block for each binder: values may come before it. Numbered stars: 1 amine (or outer) side, 2 acyl side, 3 side chain; on linkers, the order of the positions; unused ones are H or OH. Square brackets hold non-standard residues; d marks the D form. Suc = O=C(CCC(=O)[*:2])[*:1]; NMeV = CN[C@H](C(=O)O)C(C)C; βAla = NCCC(=O)O

How the values were obtained:
Test in all cases: cell-based or functional assay
Tilapia tac3 receptor = Tilapia tac3 receptor (tilapia)
Zebrafish tac3 receptor = Zebrafish tac3 receptor (zebrafish)
Salmon tac3 receptor = Salmon tac3 receptor (salmon)

B1: Ant-1 (peptide)
peptide: Suc-DIF[NMeV][βAla]LM-NH2
SMILES: CC[C@H](C)[C@H](NC(=O)[C@H](CC(=O)O)NC(=O)CCC(=O)O)C(=O)N[C@@H](Cc1ccccc1)C(=O)N(C)[C@H](C(=O)NCCC(=O)N[C@@H](CC(C)C)C(=O)N[C@@H](CCSC)C(N)=O)C(C)C
reduction of the NKB-induced luciferase response (CRE-Luc) (Tilapia tac3 receptor): ~60%
reduction of the NKB-induced response (CRE-Luc) (Zebrafish tac3 receptor): ~60%

B2: Ant-3 (peptide)
peptide: Suc-DSF[NMeV][βAla]LM-NH2
SMILES: CSCC[C@H](NC(=O)[C@H](CC(C)C)NC(=O)CCNC(=O)[C@H](C(C)C)N(C)C(=O)[C@H](Cc1ccccc1)NC(=O)[C@H](CO)NC(=O)[C@H](CC(=O)O)NC(=O)CCC(=O)O)C(N)=O
IC50 of inhibition of slNKB-induced SRE-Luciferase activity (Salmon tac3 receptor): 6.16 nM
reduction of the NKB-induced luciferase response (CRE-Luc) (Tilapia tac3 receptor): ~60%
reduction of the NKB-induced response (CRE-Luc) (Zebrafish tac3 receptor): ~60%

B6: Ant-2 (peptide)
peptide: Suc-DF[NMeV][βAla]LM-NH2
SMILES: CSCC[C@H](NC(=O)[C@H](CC(C)C)NC(=O)CCNC(=O)[C@H](C(C)C)N(C)C(=O)[C@H](Cc1ccccc1)NC(=O)[C@H](CC(=O)O)NC(=O)CCC(=O)O)C(N)=O
IC50 of inhibition of slNKB-induced SRE-Luciferase activity (Salmon tac3 receptor): 2600 nM
reduction of the NKB-induced luciferase response (CRE-Luc) (Tilapia tac3 receptor): ~60%
reduction of the NKB-induced response (CRE-Luc) (Zebrafish tac3 receptor): ~60%

Second part, the binder after the results:

reduction of the NKB-induced luciferase response (CRE-Luc) (Tilapia tac3 receptor): ~60%
reduction of the NKB-induced response (CRE-Luc) (Zebrafish tac3 receptor): ~60%
B3: Ant-5 (peptide)
peptide: Suc-D[dW][NMeV][βAla]LM-NH2
SMILES: CSCC[C@H](NC(=O)[C@H](CC(C)C)NC(=O)CCNC(=O)[C@H](C(C)C)N(C)C(=O)[C@@H](Cc1c[nH]c2ccccc12)NC(=O)[C@H](CC(=O)O)NC(=O)CCC(=O)O)C(N)=O

IC50 of inhibition of slNKB-induced SRE-Luciferase activity (Salmon tac3 receptor): 870 nM
reduction of the NKB-induced luciferase response (CRE-Luc) (Salmon tac3 receptor): ~60%
reduction of the NKB-induced luciferase response (CRE-Luc) (Tilapia tac3 receptor): ~60%
reduction of the NKB-induced response (CRE-Luc) (Zebrafish tac3 receptor): ~60%
B4: Ant-6 (peptide)
peptide: Suc-DS[dW][NMeV][βAla]LM-NH2
SMILES: CSCC[C@H](NC(=O)[C@H](CC(C)C)NC(=O)CCNC(=O)[C@H](C(C)C)N(C)C(=O)[C@@H](Cc1c[nH]c2ccccc12)NC(=O)[C@H](CO)NC(=O)[C@H](CC(=O)O)NC(=O)CCC(=O)O)C(N)=O

reduction of the NKB-induced luciferase response (CRE-Luc) (Salmon tac3 receptor): ~60%
reduction of the NKB-induced luciferase response (CRE-Luc) (Tilapia tac3 receptor): ~60%
reduction of the NKB-induced response (CRE-Luc) (Zebrafish tac3 receptor): ~60%
B5: Ant-4 (peptide)
peptide: Suc-DI[dW][NMeV][βAla]LM-NH2
SMILES: CC[C@H](C)[C@H](NC(=O)[C@H](CC(=O)O)NC(=O)CCC(=O)O)C(=O)N[C@H](Cc1c[nH]c2ccccc12)C(=O)N(C)[C@H](C(=O)NCCC(=O)N[C@@H](CC(C)C)C(=O)N[C@@H](CCSC)C(N)=O)C(C)C
